# pKd: −log10 of the molar value.
# Tests used:
# [1] = biological target: biotin-labeled T-47D culture supernatant (MUC1) (human) (UniProt P15941); experiment: SPR, Biacore, biotin-labeled T-47D culture supernatant on sensor chip SA
# Biotin-Tn(DT*R)-100 = experiment: SPR, Biacore T100, Biotin-Tn(DT*R)-100 on sensor chip SA
# T100 sequence (peptide, as listed by the source limits assumed): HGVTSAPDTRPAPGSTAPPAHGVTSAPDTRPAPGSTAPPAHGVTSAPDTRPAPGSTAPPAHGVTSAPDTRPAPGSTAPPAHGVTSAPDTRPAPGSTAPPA
# Chain of biotin-labeled T-47D culture supernatant (MUC1) (human) (P15941 24-1097 limits assumed): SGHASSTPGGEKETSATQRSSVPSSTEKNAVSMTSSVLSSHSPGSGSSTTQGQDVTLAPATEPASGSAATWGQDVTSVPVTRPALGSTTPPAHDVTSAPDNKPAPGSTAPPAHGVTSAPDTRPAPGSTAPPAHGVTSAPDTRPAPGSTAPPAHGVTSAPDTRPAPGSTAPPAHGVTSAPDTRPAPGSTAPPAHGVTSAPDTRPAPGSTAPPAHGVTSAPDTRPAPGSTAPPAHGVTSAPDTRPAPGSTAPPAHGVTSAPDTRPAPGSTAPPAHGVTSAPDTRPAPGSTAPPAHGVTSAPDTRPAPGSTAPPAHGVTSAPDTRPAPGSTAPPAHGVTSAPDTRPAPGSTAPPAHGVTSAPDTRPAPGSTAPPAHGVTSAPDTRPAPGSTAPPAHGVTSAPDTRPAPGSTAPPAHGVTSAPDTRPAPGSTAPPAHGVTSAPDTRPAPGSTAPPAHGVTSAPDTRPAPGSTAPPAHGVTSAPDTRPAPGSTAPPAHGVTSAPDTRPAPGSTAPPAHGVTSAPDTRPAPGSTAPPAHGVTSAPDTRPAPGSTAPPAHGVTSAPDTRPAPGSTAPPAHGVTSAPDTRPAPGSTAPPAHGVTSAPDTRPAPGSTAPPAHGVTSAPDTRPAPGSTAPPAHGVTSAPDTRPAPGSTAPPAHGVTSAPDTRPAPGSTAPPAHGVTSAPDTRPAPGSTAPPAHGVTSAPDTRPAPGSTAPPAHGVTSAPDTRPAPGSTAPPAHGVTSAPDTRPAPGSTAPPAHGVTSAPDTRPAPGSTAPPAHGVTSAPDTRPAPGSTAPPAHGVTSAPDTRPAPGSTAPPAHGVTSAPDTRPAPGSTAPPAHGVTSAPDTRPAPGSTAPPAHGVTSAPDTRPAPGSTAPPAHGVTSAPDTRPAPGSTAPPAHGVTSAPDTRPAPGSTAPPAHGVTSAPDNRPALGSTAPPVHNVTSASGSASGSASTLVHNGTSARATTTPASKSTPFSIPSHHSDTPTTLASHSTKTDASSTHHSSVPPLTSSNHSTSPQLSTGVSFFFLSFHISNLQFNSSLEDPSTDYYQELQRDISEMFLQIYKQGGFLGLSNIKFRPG
Substance,pKd [1],koff [1] [s⁻¹],kon [1] [M⁻¹ s⁻¹],pKd (Biotin-Tn(DT*R)-100),koff (Biotin-Tn(DT*R)-100) [s⁻¹],kon (Biotin-Tn(DT*R)-100) [M⁻¹ s⁻¹]
C595 (antibody),6.24,0.026,44000,6.14,0.012,16000
VU-2G7 (antibody),6.74,0.099,550000,6.74,0.064,360000
VU-3C6 (antibody),6.82,0.015,110000,6.08,0.051,61000
